In patent publication US8039432B2, “Method of treatment of diabetes and/or obesity with reduced nausea side effect” (Conjuchem, LLC, priority 2005, dated 2011):
Where two headings read alike, the source gives them in different places.

Tests used:
[1] = system: patients with stable Type 2 diabetes; test: Phase I/II single escalating dose clinical study of CJC-1134-PC; type: in vivo, human; settings: for Nausea (%) / Vomiting (%): N=6
Method: Patients enrolled in the trial had HbA1c levels between 6.5% and 11%. Patients previously treated with oral anti-diabetic agents discontinued therapy at least 1 week prior to dosing. […] Injections were performed with a 29 gauge needle. Each cohort consisted of 7 patients (6 active, 1 placebo). The mean glucose values at baseline of the cohorts (without placebo) were 15.6, 12.2, 12.1, 11.2, 9.6 and 15.3 mmol/L, respectively.
The efficacy parameters were based on the group mean and individual mean glucose values. Glucose was measured 6 times per day (fasting, 2-hour post-breakfast, pre-lunch, 2-hour post-lunch, pre-dinner and bedtime) during the first week and 3 times per day (fasting, 2-hour post-breakfast and bedtime) for the remaining 5 weeks of the study. In addition, a placebo group was constructed for data analysis by pooling the patients (one per cohort) that received placebo during the study. […] At the third cohort (1250 micrograms), the mean glucose reduction from baseline for the first week was 19% (ranging from 15% to 24% with a mean reduction on day 7 of 20%), giving an average glucose value for the week of 9.8 mmol/L. This glucose reduction was significant against baseline (p=0.0007) and against placebo (p=0.0045). […] The glucose reductions of the subsequent cohorts were of similar magnitude and duration and confirmed this response. At the 2500 microgram cohort, the average glucose value for the first week was reduced to 9.5 mmol/L; the value for the 5000 microgram cohort for the first week was reduced to 8.4 mmol/L. (The American Diabetes Association (ADA) has a recommended target of HbA1C<7%; a mean daily glucose level of 9.5 mmol/L corresponds to an HbA1C level of 7%).

[2] = system: monkeys; test: Monkey toxicity study (7-day and 28-day); type: in vivo
Method: Recombinant human albumin was also dosed at 9 mg/kg as an additional control.

[3] = system: female diabetic db/db mice; type: in vivo, mouse; settings: for abnormal clinical signs: mouse, in vivo
Method: Blood glycemia was recorded at the following time points: pre-dose, 1, 3, 6, 24, 30, 48, 52, 74 and 101 hours post dose using a handheld glucometer (Accu-check compact, Roche Diagnostics, Canada). Food and water intake were recorded at the following timepoints: 0 to 6, 6 to 24, 24 to 30, 30 to 48, 48 to 72 and 72 to 101 hours post dose.

[4] = system: male Sprague-Dawley rats; test: Kaolin intake (pica) test; settings: for kaolin intake after dosing relative to 0.9% NaCl: LiCl IP, exendin-4 and CJC-1134-PC 0.5 nmol/kg SC
Method: (§1) Ninety male Sprague-Dawley rats of 6 weeks in age were housed individually and given food and water ad libitum. Habituation to kaolin was achieved by offering fresh blocks of kaolin daily for 8 days before dosing. Rats were then assigned to nine treatment groups (n=10/group).
(§2) Immediately following injection, animals were offered a fresh kaolin block in addition to food and water. Kaolin intake was measured every hour for a four-hour period immediately after dosing, and also at 6, 8, and 24 hours post dose (FIG. 3).

[5] = system: Sprague Dawley rats; test: Rat toxicity study (7-day and 28-day); type: in vivo
Method: Immediately following injection, rats were housed individually, and food consumption and changes in body weights were monitored. […] However, by day 4, food consumption was similar to that observed in rats receiving vehicle only (FIG. 4). […] (FIG. 5).
Recombinant human albumin (rHA) was also dosed at 23 mg/kg as an additional control.

[6] = system: Male Zucker Diabetic Fatty (ZDF) rats; test: Anti-obesity test in ZDF rats; type: in vivo, rat; settings: for cumulative food intake relative to 0.9% NaCl group / cumulative weight gain compared to 0.9% NaCl: 25 days; for cumulative weight gain compared to 0.9% NaCl: four weekly SC injections, 100 and 200 nmol/kg; for day on which decrease in cumulative food intake reached statistical significance: relative to 0.9% NaCl group, weekly SC injections
Method: Control animal were injected with 0.9% NaCl. Animals were weighed twice a week and food intake was measured daily for the first week and four times a week thereafter for a total of 25 days. Statistical analysis was performed using two-way Analysis of Variance (ANOVA) followed by the Tukey's pair-wise comparison test. Significance was considered when P value was less than 0.05.

[7] = system: male Sprague-Dawley rats; settings: rat, in vivo
Text: One model for studying gastrointestinal malaise in response to administration of a test agent is the conditioned taste aversion test (Peeters and Broekkamp, 1994, J. Steroid Biochem. Mol. Biol., 49:417-427). Conditioned taste aversion is a form of associative learning in which animals learn to avoid flavors of substances where initial ingestion of the substance was followed by illness. In conditioned taste aversion, animals learn to associate a flavor, or conditioned stimulus, with the aversive effects of an administered agent, or unconditioned stimulus. Following conditioned stimulus—unconditioned stimulus pairings, animals reduce their consumption of the conditioned stimulus, and/or show a preference for other tastes when later presented with the conditioned flavor. […] The conditioned stimulus was 0.1% saccharin flavored water with high palatability. […]
Following injection, all groups were given food ad libitum and 2 bottles of water. At 72 h and 96 h post dose, a choice of tap water or 0.1% saccharin solution (conditioned stimulus) was offered, and intake of both solutions was measured for 12 hours. Mean saccharin preference ratios, representing the percentage of saccharin solution consumed relative to total liquid intake, were determined for each group (FIGS. 1 and 2).

[8] = system: subjects; settings: subcutaneous injection, 1.5 nmol/kg body weight and higher; cited from earlier work
[9] = system: male Sprague-Dawley rats; settings: rat, in vivo; remark: listed apart in the source
Method: as §1, §2

[10] = 1250 μg (17.6 nmoles) single SC
[11] = 2500 μg (35.2 nmoles) single SC
[12] = 3750 μg (52.8 nmoles) single SC
[13] = 5000 μg (70.4 nmoles) single SC
[14] = first four cohorts (310, 620, 1250 and 2500 μg)

For “exendin-4(1-39) Lys^40 (ε-AEEA-MPA)-NH2 conjugated with albumin [CJC-1134-PC]”, the “Nausea (%)” value ([1]; 310 μg (4.4 nmoles) single SC) was 0%, the “Vomiting (%)” value ([1]; 310 μg (4.4 nmoles) single SC) was 0% and the “Nausea (%)” value ([1]; 620 μg (8.7 nmoles) single SC) was 0%. The “Vomiting (%)” value ([1]; 620 μg (8.7 nmoles) single SC) was 0%, the “Nausea (%)” value [1, 10] was 0% and the “Vomiting (%)” value [1, 10] was 0%. The “Nausea (%)” value [1, 11] was 0%, the “Vomiting (%)” value [1, 11] was 0% and the “Nausea (%)” value [1, 12] was 17%. The “Vomiting (%)” value [1, 12] was 17%, the “Nausea (%)” value [1, 13] was 50% and the “Vomiting (%)” value [1, 13] was 17%. The “average glucose value for the first week” value ([1]; 1250 micrograms) was 9.8 mmol/L, the “duration of glucose lowering effect” value ([1]; 1250 micrograms) was “more than 2 weeks” and the “mean glucose reduction from baseline on day 7” value ([1]; 1250 micrograms) was 20%. For the same compound, the “mean glucose reduction from baseline for the first week” value ([1]; 1250 micrograms, p=0.0007 vs baseline, p=0.0045 vs placebo) was 19%, the “average glucose value for the first week” value ([1]; 2500 microgram cohort) was 9.5 mmol/L and the “average glucose value for the first week” value ([1]; 5000 microgram cohort) was 8.4 mmol/L. The “symptoms (headache, dizziness, light-headedness without documented hypoglycaemia)” value ([1]; 5000 microgram cohort) was “symptoms linked to an over stimulation of the GLP-1 receptors were observed”, the injection site reactions [1, 14] was “no injection site reactions” and the safety and tolerability [1, 14] was “no safety or tolerability issues”. For the same compound, the efficacy on glucose ([1]; first two cohorts (310 and 620 micrograms)) was “Limited or no efficacy”, the “average weight loss at day 7” value ([1]; first two non-active cohorts) was 0.4 kg and the gastric stasis ([1]; in each of the 3750 and 5000 μg cohorts, post-lunch on day one) was “one mild and transient case of short-term gastric stasis”. For the same compound, the “dose linearity of plasma concentrations” value ([1]; single SC dose, 310-5000 μg) was “dose linear”, the “average weight loss at day 7” value ([1]; three following cohorts where activity was observed on glucose) was 0.9 kg and the “clinical chemistry, hematology, urinalysis, organ weights, macroscopic evaluations” value ([2]; monkey 7-day study) was “no effects on clinical chemistry, hematology, urinalysis, or organ weights, or on macroscopic evaluations”. For the same compound, the “mortality or serious signs of toxicity” value ([2]; monkey 7-day study, 0.4, 2 and 10 mg/kg/day SC) was “no mortality or serious signs of toxicity were observed”, the “food consumption (number of biscuits per day)” value ([2]; monkey 7-day study, days 1-3, all groups including vehicle control, comparable by days 4-7) was “Initial decreases in food consumption” and the body weight ([2]; monkey 7-day study, moderately attenuated by day 7) was “dose-dependent decrease in body weight by day 3”. For the same compound, the body weight ([2]; monkey 28-day study) was “dose dependent decrease in body weight was observed throughout the 28-day period”, the clinical signs ([2]; monkey 28-day study) was “transient decrease in activity, hunched posture, and decreased fecal output” and the macroscopic evaluations ([2]; monkey 28-day study) was “no effects on macroscopic evaluations”. The food consumption ([2]; monkey 28-day study, 10 mg/kg, comparable across groups by day 7) was “significantly reduced at 10/mg/kg on days 2 and 3”, the tolerability ([2]; monkeys, up to 10 mg/kg) was “generally well tolerated” and the “blood glucose levels compared to 100 nmol/kg unconjugated exendin-4” value ([3]; 100 nmol/kg single SC, 24 h post dose) was “significantly lower”. The “blood glucose levels compared to unconjugated exendin-4” value ([3]; 100 nmol/kg single SC, out to 48 h post dose) was “remained lower”, the “food and water consumption compared to unconjugated exendin-4” value ([3]; 24-47 h post dose) was “remained lower” and the “food and water consumption compared to unconjugated exendin-4” value ([3]; after 24 hours) was “significantly reduced”. For the same compound, the “blood glucose levels compared to unconjugated exendin-4” value ([3]; after 72 h) was “comparable”, the “food consumption relative to exendin-4 treated mice” value ([3]; after 74 h, maintained out to 101 h post dose) was “only moderately lower” and the abnormal clinical signs [3] was “No abnormal clinical signs”. The “water consumption relative to exendin-4 treated mice” value ([3]; out to 101 h post dose) was “moderately lower”, the “kaolin intake after dosing relative to 0.9% NaCl” value [4] was “kaolin intake was only moderately increased after 6 h” and the “kaolin intake relative to 0.9% NaCl, first 2 h” value ([4]; first 2 h post dose) was “Minimal kaolin intake”. The “clinical chemistry, hematology, urinalysis, organ weights, macroscopic evaluations” value ([5]; rat 7-day study) was “no effects on clinical chemistry, hematology, urinalysis, or organ weights, or on macroscopic evaluations”, the “mortality or serious signs of toxicity” value ([5]; rat 7-day study, 1, 5 or 25 mg/kg/day SC) was “no mortality or serious signs of toxicity were observed” and the food consumption ([5]; rat 7-day study, 5 and 25 mg/kg/day SC, similar to vehicle by day 4) was “dose dependent decrease in food consumption was observed at days 1-3”. The macroscopic evaluations ([5]; rat 28-day study) was “no effects on macroscopic evaluations”, the food consumption ([5]; rat 28-day study, 25 mg/kg, comparable across groups by day 8) was “decrease in food consumption was observed at 25 mg/kg from days 1-7” and the body weight ([5]; rat 28-day study, 25 mg/kg, weight gain comparable days 4-28) was “Decreases in body weight were also observed at the 25 mg/kg/doses at days 1-4”. For the same compound, the “activity and fecal output” value ([5]; rat 28-day study, following injections) was “transient decrease in activity and fecal output”, the tolerability ([5]; rats, up to 25 mg/kg) was “generally well tolerated” and the “day from which reduction of cumulative weight gain was statistically significant” value ([6]; 100 nmol/kg, p≦0.05) was 11 days. The “day from which reduction of cumulative weight gain was statistically significant” value ([6]; 200 nmol/kg, p≦0.01) was 4 days, the “cumulative food intake relative to 0.9% NaCl group” value [6] was “Reduction in cumulative food intake” and the “cumulative weight gain compared to 0.9% NaCl” value [6] was “significantly reduced”. The “day on which decrease in cumulative food intake reached statistical significance” value [6] was 9 days and the “taste aversion response compared to unconjugated exendin-4” value [7] was “significantly lower taste aversion response”.

For “GLP-1: proglucagon-derived peptide secreted from intestinal L-cells; incretin”, the nausea and vomiting [8] is listed as “lead to nausea and, less often, vomiting in a significant proportion of subjects”.

For exendin-4(1-39) [reference compound], the abnormal clinical signs [3] was “No abnormal clinical signs”, the “cumulative food intake relative to 0.9% NaCl group” value [6] was “Reduction in cumulative food intake” and the “cumulative weight gain compared to 0.9% NaCl” value [6] was “not significant”. For the same compound, the “day on which decrease in cumulative food intake reached statistical significance” value [6] was 16 days, the “conditioned taste aversion (saccharin preference ratio compared to vehicle control)” value [7] was “decreased significantly the preference saccharine ratio” and the “kaolin intake relative to 0.9% NaCl, first 2 h” value [9] was “Minimal kaolin intake”.

With `[Cl-].[Li+]` [LiCl, Lithium chloride, reference compound] the “kaolin intake after dosing relative to 0.9% NaCl” value [4] was “significant kaolin intake after 1 h”.
